Results published in patent publication US11497796B2, “Agents directed against a cis RGMa/neogenin interaction or lipid rafts and use of the same in methods of treatment” (UNIVERSITY HEALTH NETWORK, priority 2013, dated 2022).

What was measured:
[1] = target: T1, 4Ig-domain of Neogenin (His-4Ig) (Gallus gallus, UniProt Q90610); assay: Pull-down assay with peptide-coated beads; type: binding; conditions: Western blot with anti-His
T1 construct: 6-His (N); myc (C); 6-His (C); made in house
T1 sequence (Q90610 1-383): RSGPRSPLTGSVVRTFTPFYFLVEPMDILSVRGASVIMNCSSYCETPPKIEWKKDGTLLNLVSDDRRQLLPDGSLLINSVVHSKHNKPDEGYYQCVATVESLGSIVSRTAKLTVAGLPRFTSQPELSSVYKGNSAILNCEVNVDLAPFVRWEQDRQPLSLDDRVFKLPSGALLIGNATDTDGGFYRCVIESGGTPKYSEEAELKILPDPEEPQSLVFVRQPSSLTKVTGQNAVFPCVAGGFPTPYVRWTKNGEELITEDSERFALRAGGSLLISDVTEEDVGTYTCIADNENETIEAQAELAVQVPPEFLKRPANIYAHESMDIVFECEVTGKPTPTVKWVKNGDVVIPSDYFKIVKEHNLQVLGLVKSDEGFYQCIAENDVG
Experimental: (A) RGMa proteins were incubated on plates coated with 4Ig- or 6FNIII-AP. One C- and one N-RGMa domain (N-RGMa^77-113) interacted with 6FNIII. One N-RGMa domain (N-Raft) interacted with 4Ig. (B) Supernatants (Sup) from cells expressing His-6FNIII or His-4Ig, were pulled down (IP) with beads coated with N-Raft, N-RGMa^50-99, and N-inh. Western Blot was then performed with an anti-His antibody to reveal whether or not His-6FNIII or His-4Ig interacted with the coated beads. […] Data are average±SEM (n=3 independent experiments), *p<0.0001. Scale bar, 100 μm. (E) Chick brains were injected with control peptide (Ctrl; N-RGMa^50-99), 4Ig, N-Raft, or Noggin 1 day before preparing membrane fractionations. In control experiments, Neogenin localized to the Flotillin/RGMa-containing lipid raft fraction (as shown in solid lined boxes). 4Ig, N-Raft, or Noggin shifted Neogenin to heavy fractions.
Proteins were coupled to activated CNBr Sepharose beads (Pharmacia) according to supplier instructions. Supernatants from transfected cells were added to coupled beads for 2 h at room temperature (RT). Beads were then washed 6× with PBS plus 0.02% Tween 20, and SDS loading buffer was added. Samples were boiled and subjected to Western blotting.

4Ig-domain of DCC = assay: AP binding assay on coated DCC-4Ig; conditions: closest Neogenin homologue, specificity control
Experimental: (A) Different RGMa-AP proteins were incubated on wells coated with the 4Ig 6FNIII or BSA. […] Data were average±SEM (n=3 independent experiments), *p<0.005. (B) Quantification of a binding assay where 4Ig-AP and 6FNIII-AP proteins were assayed on wells coated with proteins from different RGMa regions. […] Thus, two N-RGMa fragments were identified (N-Raft and N-RGMa77-113) that bound the 4Ig and 6FNIII domains in Neogenin, respectively. C-RGMa proteins and full length RGMa only bound 6FNIII. Data were average±SEM (n=3 independent experiments), *p<0.005. […] Quantification of a binding assay where N-RGMa-AP was assayed on wells coated with proteins DCC-4Ig and Neogenin-4Ig. In this experiment Neogenin-4Ig but not DCC-4Ig interacted with N-Raft-AP. Data were average±SEM (n=4 independent experiments), *p<0.005. (D) Cis-interaction between the 4Ig domain of Neogenin and N-Raft is required for localization of Neogenin in lipid rafts. HEK-293 cells were transfected with Neogenin and RGMa constructs. BMP2 (100 nM) was added to the medium 1 hour before cells were collected. Western blotting was performed following lipid raft fractionation. Flotillin was used as a marker for lipid raft fractions, whereas the transferrin receptor (TfR) was used as a marker for heavy membrane-fractions. Every experiment was repeated twice. […]

EAE paralysis = assay: EAE mouse model of multiple sclerosis; type: in vivo; conditions: 3 μg IV at days 3, 6, 9; after 17 days; control approaching 5
Experimental: Specifically, whether or not 4Ig reduced paralysis in the EAE model was tested. To induce EAE, C57BL6/J mice were injected with an emulsion of MOGp35-55 peptide (50 μg, day 0) mixed with complete Freund's adjuvant (CFA). On day 2, the animals also received 400 ng of pertussis toxin (PTX) intraperitoneally in order to produce severe and reliable EAE and then were examined for clinical signs in over a 17 day period (FIG. 28).
At days 3, 6, and 9 post-EAE induction, animals were treated with either 3 μg of 4Ig in PBS (IV injection) or PBS (Control).

retinal whole mounts = assay: Oxygen Glucose Deprivation (OGD) in retinal whole mounts, PI staining; type: cell-based; conditions: OGD in presence of 4Ig
Experimental: Specifically, retinal whole mounts were subjected to OGD for 1 hour. After ischemia, whole mounts were incubated for 24 hours and dead cells were identified using propidium iodide (PI) staining.
To determine whether Neogenin required lipid raft association to induce cell death, OGD was performed on retinal whole mounts in the presence of 4Ig, which as described above, prevented Neogenin localization into lipid rafts.

N-Raft: peptide spanning amino acids 28-73 of RGMa (SEQ ID NO:2) (SPCKILKCNSEFWAATSGSHHLGAEETPEFCTALRAYAHCTRRTAR; N-Raft - amino acids 28-73 of RGMa)
pull-down of 4Ig-domain by peptide-coated beads [1]: pulled down | interaction with the 4Ig-domain of DCC (4Ig-domain of DCC): No significant interaction

B1: 4Ig: four immunoglobulin-like domains of Neogenin, amino acids 1 to 383 of Accession No. AAC59662 (SEQ ID NO:1) (protein, listed as Gallus gallus)
chain: RSGPRSPLTGSVVRTFTPFYFLVEPMDILSVRGASVIMNCSSYCETPPKIEWKKDGTLLNLVSDDRRQLLPDGSLLINSVVHSKHNKPDEGYYQCVATVESLGSIVSRTAKLTVAGLPRFTSQPELSSVYKGNSAILNCEVNVDLAPFVRWEQDRQPLSLDDRVFKLPSGALLIGNATDTDGGFYRCVIESGGTPKYSEEAELKILPDPEEPQSLVFVRQPSSLTKVTGQNAVFPCVAGGFPTPYVRWTKNGEELITEDSERFALRAGGSLLISDVTEEDVGTYTCIADNENETIEAQAELAVQVPPEFLKRPANIYAHESMDIVFECEVTGKPTPTVKWVKNGDVVIPSDYFKIVKEHNLQVLGLVKSDEGFYQCIAENDVGNAQAGAQLIILDLDVAIPTLPPTSLTSATNDHLAPATTGPLPTAPRDVVATLVSTRFIRLTWRTPVSDPQGDNLTYSIFYTKEGINRERVENTSRPGETQVMIQNLMPETVYVFRVVAQNKHGHGESSAPLKVATQPEVQLPGPAPNIRAYAGSPTSVTVTWETPLSGNGEIQNYKLYYMEKGQDSEQDVDVAGLSYTITGLKKYTEYSFRVVAYNKHGPGVSTQDVVVRTLSDVPSAAPQNLTLEARNSKSIMLHWQPPPAGTHSGQITGYKIRYRKVSRKSDVTESVGGTQLFQLIEGLERGTEYNFRIAAMTVNGTGPATDWVSAETFESDLDESRVPEVPSSLHVRPLVTSIVVSWTPPENQNIVVRGYAIGYGIGSPHAQTIKVDYKQRYYTIENLDPSSHYVITLKAFNNVGEGIPLYESAVTRPHSDTSEVDLFVINAPYTPVPDPSPMMPPVGVQASILSHDTIRITWADNSLPKNQKITDARYYTVRWKTNIPANTKYKTANATTLSYLVTGLKPNTLYEFSVMVTKGRRSSTWSMTAHGTTFELVPTSPPKDVTVVSKEGKPRTIIVNWQPPSEANGKITGYIIYYSTDVNAEIHDWVIEPVVGNRLTHQIQELTLDTPYYFKIQARNSKGMGPMSEAVQFRTPKAESSDKMPNDQASGSAGKGSRPVDVGPDYKPPLSGSNSPHGSPTSPLDSNMLLVIIVSVGVITIVIVVIVAVFCTRRTTSHQKKKRAACKSVNGSHKYKGNSKDVKPPDLWIHHERLELKPIDKSPDPNPIMTDTPIPRNSQDITPVDNSMDSNIHQRRNSYRGHESEDSMSTLAGRRGMRPKMMMPFDSQPPQPVISAHPIHSLDNPHHHFHSGSLASPTRSYLHHQVSPWPVGTSMSHSDRANSTESVRNTPSSDTMPASSSQPCADHQDPDSSSGAYLGSAQEEDAAQSLPTAHVRPSHPLKSFAVPAVPAAGSAYDPTLPSTPLLTQQAPSHPVHSVKTASIGTLGRTRPPMPVVVPSAPDVQETTRMLEDSESSYEPDELTKEMAHLEGLMKDLNAITTA
modifications: Neogenin - Accession No. AAC59662
clinical score (EAE paralysis): 1.4 | reduction of the number of dead neurons compared to controls (retinal whole mounts): two-fold
